Measurements taken from article PMC5078997, “Diversity-oriented synthetic strategy for developing a chemical modulator of protein–protein interaction” (Nature Communications, 2016).

Biological target: T1, His-tagged human leucyl-tRNA synthetase (LRS) (human, UniProt Q9P2J5 1-1176)
T1 construct: leucyl-tRNA synthetase (LRS), human; also called His-LRS; human LRS; source: laboratory stocks; purified
Assay: ELISA; His-tagged human LRS coated on the plate (0.5 ng/ul in 100 mM carbonate buffer, pH 9.6, overnight at 4 °C), blocked with 5% BSA in PBS; GST-tagged human RagD added together with each compound for 3 h; detected with anti-GST and HRP-conjugated secondary antibody, TMB, absorbance at 450 nm
Conditions: both partners purified

T1 sequence (Q9P2J5 whole entry): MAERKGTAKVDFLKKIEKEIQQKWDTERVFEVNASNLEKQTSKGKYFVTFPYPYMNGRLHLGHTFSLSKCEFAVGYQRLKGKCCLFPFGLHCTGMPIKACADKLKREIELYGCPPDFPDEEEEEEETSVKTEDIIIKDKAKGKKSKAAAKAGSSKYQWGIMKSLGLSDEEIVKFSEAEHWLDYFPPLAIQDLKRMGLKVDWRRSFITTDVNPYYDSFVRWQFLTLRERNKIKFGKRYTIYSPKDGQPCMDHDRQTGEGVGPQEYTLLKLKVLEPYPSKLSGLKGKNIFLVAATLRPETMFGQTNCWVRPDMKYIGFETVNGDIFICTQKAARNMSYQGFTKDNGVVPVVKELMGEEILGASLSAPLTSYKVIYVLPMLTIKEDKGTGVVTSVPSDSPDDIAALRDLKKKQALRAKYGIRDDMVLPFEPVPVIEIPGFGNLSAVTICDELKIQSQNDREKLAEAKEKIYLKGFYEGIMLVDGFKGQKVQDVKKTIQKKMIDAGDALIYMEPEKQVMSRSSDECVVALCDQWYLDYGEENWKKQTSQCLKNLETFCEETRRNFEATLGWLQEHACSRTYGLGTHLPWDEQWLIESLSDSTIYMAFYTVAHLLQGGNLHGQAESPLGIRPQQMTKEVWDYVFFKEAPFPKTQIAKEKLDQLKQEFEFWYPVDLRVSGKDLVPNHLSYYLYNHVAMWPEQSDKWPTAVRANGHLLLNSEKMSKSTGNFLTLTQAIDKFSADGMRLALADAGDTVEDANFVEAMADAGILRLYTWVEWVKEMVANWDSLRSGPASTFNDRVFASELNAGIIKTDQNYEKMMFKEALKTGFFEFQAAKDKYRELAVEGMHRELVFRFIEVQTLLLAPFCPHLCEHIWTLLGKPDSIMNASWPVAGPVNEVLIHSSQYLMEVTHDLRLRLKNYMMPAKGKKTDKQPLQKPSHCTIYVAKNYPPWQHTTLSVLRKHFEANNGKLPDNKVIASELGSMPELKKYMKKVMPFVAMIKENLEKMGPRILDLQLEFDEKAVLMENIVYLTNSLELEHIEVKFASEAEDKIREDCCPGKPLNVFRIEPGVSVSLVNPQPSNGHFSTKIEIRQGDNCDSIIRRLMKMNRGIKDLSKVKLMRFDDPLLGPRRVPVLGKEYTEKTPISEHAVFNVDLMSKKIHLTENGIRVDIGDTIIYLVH

B1: GST (glutathione-S-transferase)-tagged human Ras-related GTP-binding protein D (RagD) (natural protein, UniProt Q9NQL2 1-400, looked up)
chain: MSQVLGKPQPQDEDDAEEEEEEDELVGLADYGDGPDSSDADPDSGTEEGVLDFSDPFSTEVKPRILLMGLRRSGKSSIQKVVFHKMSPNETLFLESTNKICREDVSNSSFVNFQIWDFPGQIDFFDPTFDYEMIFRGTGALIFVIDSQDDYMEALARLHLTVTRAYKVNTDINFEVFIHKVDGLSDDHKIETQRDIHQRANDDLADAGLEKIHLSFYLTSIYDHSIFEAFSKVVQKLIPQLPTLENLLNIFISNSGIEKAFLFDVVSKIYIATDSTPVDMQTYELCCDMIDVVIDISCIYGLKEDGAGTPYDKESTAIIKLNNTTVLYLKEVTKFLALVCFVREESFERKGLIDYNFHCFRKAIHEVFEVRMKVVKSRKVQNRLQKKKRATPNGTPRVLL
notes: also called GST-tagged RagD; source: laboratory stocks; purified
binding result: binds
